Results as given in patent US20240392004A1 (IMMUNOWAKE, published 2024).
Residue numbers refer to the chain shown, from its start. Names and notes keep the numbering of the source. One block for each binder: values may come before it.

Columns and labels:
[1] = target: T1, human PD-1 on cells (HEK-PD-1 reporter cells; activated PBMC) (human, UniProt Q15116 25-288); assay: cell-based or functional assay
human PD-1 = target: T2, human PD-1 (human, UniProt Q15116 25-167, limits assumed); assay: Biacore and cell-based assays, calibrated by wildtype nivolumab binding affinity
T2 construct: also called hPD-1

[2] = target: T1, human PD-1 on cells (HEK-PD-1 reporter …); assay: cell-based or functional assay; remark: listed apart in the source
[3] = target: human IL-12 receptor complex (IL-12Rβ1 and IL-12Rβ2) (human, UniProt P42701 24-662; Q99665 24-862); assay: cell-based or functional assay
[4] = target: T3, IFN-γ receptor (IFNGR1 and IFNGR2) (UniProt P15260 18-489; P38484 22-337, limits assumed); assay: cell-based or functional assay
T3 sequence (looked up) 1: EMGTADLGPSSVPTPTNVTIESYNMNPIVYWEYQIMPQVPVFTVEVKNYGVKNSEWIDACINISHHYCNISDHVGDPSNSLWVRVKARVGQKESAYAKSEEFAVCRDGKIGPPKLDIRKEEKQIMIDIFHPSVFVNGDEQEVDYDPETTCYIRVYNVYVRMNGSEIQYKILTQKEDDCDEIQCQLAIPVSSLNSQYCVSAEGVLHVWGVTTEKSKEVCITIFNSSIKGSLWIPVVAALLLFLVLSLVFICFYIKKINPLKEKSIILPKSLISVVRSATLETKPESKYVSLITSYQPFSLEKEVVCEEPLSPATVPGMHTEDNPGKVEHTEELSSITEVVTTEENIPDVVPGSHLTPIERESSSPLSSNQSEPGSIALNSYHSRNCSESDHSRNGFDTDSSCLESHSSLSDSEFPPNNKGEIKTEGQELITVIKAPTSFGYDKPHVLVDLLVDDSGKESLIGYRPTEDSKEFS
T3 sequence (looked up) 2: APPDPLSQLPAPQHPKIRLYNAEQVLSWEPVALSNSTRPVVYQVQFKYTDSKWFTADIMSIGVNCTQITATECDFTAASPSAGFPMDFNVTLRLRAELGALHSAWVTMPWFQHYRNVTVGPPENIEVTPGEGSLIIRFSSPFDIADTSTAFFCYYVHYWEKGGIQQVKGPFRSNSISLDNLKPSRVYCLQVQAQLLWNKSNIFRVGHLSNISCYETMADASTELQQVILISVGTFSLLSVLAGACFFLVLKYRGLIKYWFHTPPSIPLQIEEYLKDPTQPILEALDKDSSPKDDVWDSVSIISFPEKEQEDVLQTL

T2 sequence (Q15116 25-167 limits assumed): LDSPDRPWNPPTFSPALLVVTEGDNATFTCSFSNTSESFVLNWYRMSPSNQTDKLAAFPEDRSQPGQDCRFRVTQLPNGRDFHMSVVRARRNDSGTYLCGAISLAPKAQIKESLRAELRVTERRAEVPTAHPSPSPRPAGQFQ
T1 sequence (Q15116 25-288): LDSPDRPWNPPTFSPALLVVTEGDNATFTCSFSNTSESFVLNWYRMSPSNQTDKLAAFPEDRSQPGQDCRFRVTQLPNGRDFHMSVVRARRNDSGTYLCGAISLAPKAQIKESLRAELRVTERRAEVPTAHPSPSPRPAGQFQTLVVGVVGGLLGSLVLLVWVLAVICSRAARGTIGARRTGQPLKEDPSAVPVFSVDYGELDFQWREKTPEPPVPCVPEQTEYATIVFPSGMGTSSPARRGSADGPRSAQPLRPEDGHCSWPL
Chain of human IL-12 receptor complex (IL-12Rβ1 and IL-12Rβ2) (Q99665 24-862, chain 2 of 2, other chains not shown): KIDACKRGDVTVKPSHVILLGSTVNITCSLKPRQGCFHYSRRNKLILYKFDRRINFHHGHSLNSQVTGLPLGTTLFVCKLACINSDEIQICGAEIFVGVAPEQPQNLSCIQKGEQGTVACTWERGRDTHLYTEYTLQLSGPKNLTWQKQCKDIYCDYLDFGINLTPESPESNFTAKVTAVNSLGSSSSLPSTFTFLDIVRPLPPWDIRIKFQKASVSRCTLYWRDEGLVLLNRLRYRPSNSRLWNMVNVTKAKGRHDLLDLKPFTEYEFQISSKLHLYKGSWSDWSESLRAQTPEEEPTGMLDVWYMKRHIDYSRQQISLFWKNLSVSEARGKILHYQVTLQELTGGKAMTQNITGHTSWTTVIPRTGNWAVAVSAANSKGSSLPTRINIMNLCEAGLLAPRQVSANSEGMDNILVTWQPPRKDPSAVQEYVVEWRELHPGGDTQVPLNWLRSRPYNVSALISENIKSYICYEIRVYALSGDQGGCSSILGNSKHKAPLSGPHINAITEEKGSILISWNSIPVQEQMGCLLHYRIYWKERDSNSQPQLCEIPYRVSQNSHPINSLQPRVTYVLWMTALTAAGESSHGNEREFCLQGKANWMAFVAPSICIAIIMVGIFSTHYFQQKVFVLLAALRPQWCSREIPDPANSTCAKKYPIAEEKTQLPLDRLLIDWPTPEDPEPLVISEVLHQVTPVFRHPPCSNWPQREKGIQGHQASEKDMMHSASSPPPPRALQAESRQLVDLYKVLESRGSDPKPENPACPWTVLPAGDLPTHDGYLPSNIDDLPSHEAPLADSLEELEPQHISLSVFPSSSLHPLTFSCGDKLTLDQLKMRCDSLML

B1: PD-L1(I54Q/Y56F/E58M/R113T/M115L/S117A/G119K)-Fc/IL-12(E59A/F60A) (IL-12 at C-terminus of Fc) (Fc fusion)
chain 1: FTVTVPKDLYVVEYGSNMTIECKFPVEKQLDLAALQVFWMMEDKNIIQFVHGEEDLKVQHSSYRQRARLLKDQLSLGNAALQITDVKLQDAGVYTCLIAYKGADYKRITVKVNAPYNKINQRILVVDPVTSEHELTCQAEGYPKAEVIWTSSDHQVLSGKTTTTNSKREEKLFNVTSTLRINTTTNEIFYCTFRRLDPEENHTAELVIPELPLAHPPNERGSGDKTHTCPPCPAPEKKGGPSVFLFPPKPKDTLMISRTPEVTCVVVDVSHEDPEVKFNWYVDGVEVHNAKTKPREEQYNSTYRVVSVLTVLHQDWLNGKEYKCKVSNKALPAPIEKTISKAKGQPREPQVYVLPPSREEMTKNQVSLLCLVKGFYPSDIAVEWESNGQPENRYMTWPPVLDSDGSFFLYSKLTVDKSRWQQGNVFSCSVMHEALHNHYTQKSLSLSPGK
chain 2: FTVTVPKDLYVVEYGSNMTIECKFPVEKQLDLAALQVFWMMEDKNIIQFVHGEEDLKVQHSSYRQRARLLKDQLSLGNAALQITDVKLQDAGVYTCLIAYKGADYKRITVKVNAPYNKINQRILVVDPVTSEHELTCQAEGYPKAEVIWTSSDHQVLSGKTTTTNSKREEKLFNVTSTLRINTTTNEIFYCTFRRLDPEENHTAELVIPELPLAHPPNERGSGDKTHTCPPCPAPEDEGGPSVFLFPPKPKDTLMISRTPEVTCVVVDVSHEDPEVKFNWYVDGVEVHNAKTKPREEQYNSTYRVVSVLTVLHQDWLNGKEYKCKVSNKALPAPIEKTISKAKGQPREPQVYVYPPSREEMTKNQVSLTCLVKGFYPSDIAVEWESNGQPENNYKTTPPVLDEDGSFALVSKLTVDKSRWQQGNVFSCSVMHEALHNHYTQKSLSLSPGKGGGGSGGGGSGGGGSIWELKKDVYVVELDWYPDAPGEMVVLTCDTPEEDGITWTLDQSSEVLGSGKTLTIQVKAAGDAGQYTCHKGGEVLSHSLLLLHKKEDGIWSTDILKDQKEPKNKTFLRCEAKNYSGRFTCWWLTTISTDLTFSVKSSRGSSDPQGVTCGAATLSAERVRGDNKEYEYSVECQEDSACPAAEESLPIEVMVDAVHKLKYENYTSSFFIRDIIKPDPPKNLQLKPLKNSRQVEVSWEYPDTWSTPHSYFSLTFCVQVQGKSKREKKDRVFTDKTSATVICRKNASISVRAQDRYYSSSWSEWASVPCSGGGGSGGGGSGGGGSGGGGSGRNLPVATPDPGMFPCLHHSQNLLRAVSNMLQKARQTLEFYPCTSEEIDHEDITKDKTSTVEACLPLELTKNESCLNSRETSFITNGSCLASRKTSFMMALCLSSIYEDLKMYQVEFKTMNAKLLMDPKRQIFLDQNMLAVIDELMQALNFNSETVPQKSSLEEPDFYKTKIKLCILLHAFRIRAVTIDRVMSYLNAS
Biological activity of IL-12, HEK-PD-1-IL-12 reporter assay, % of rIL-12 [1]: 189%

B2: IL-12(E59A/F60A)/PD-L1(I54Q/Y56F/E58M/R113T/M115L/S117A/G119K)-Fc (IL-12 at hinge) (Fc fusion)
chain 1: B1 chain 1
chain 2: FTVTVPKDLYVVEYGSNMTIECKFPVEKQLDLAALQVFWMMEDKNIIQFVHGEEDLKVQHSSYRQRARLLKDQLSLGNAALQITDVKLQDAGVYTCLIAYKGADYKRITVKVNAPYNKINQRILVVDPVTSEHELTCQAEGYPKAEVIWTSSDHQVLSGKTTTTNSKREEKLFNVTSTLRINTTTNEIFYCTFRRLDPEENHTAELVIPELPLAHPPNERGSGIWELKKDVYVVELDWYPDAPGEMVVLTCDTPEEDGITWTLDQSSEVLGSGKTLTIQVKAAGDAGQYTCHKGGEVLSHSLLLLHKKEDGIWSTDILKDQKEPKNKTFLRCEAKNYSGRFTCWWLTTISTDLTFSVKSSRGSSDPQGVTCGAATLSAERVRGDNKEYEYSVECQEDSACPAAEESLPIEVMVDAVHKLKYENYTSSFFIRDIIKPDPPKNLQLKPLKNSRQVEVSWEYPDTWSTPHSYFSLTFCVQVQGKSKREKKDRVFTDKTSATVICRKNASISVRAQDRYYSSSWSEWASVPCSGGGGSGGGGSGGGGSGGGGSGRNLPVATPDPGMFPCLHHSQNLLRAVSNMLQKARQTLEFYPCTSEEIDHEDITKDKTSTVEACLPLELTKNESCLNSRETSFITNGSCLASRKTSFMMALCLSSIYEDLKMYQVEFKTMNAKLLMDPKRQIFLDQNMLAVIDELMQALNFNSETVPQKSSLEEPDFYKTKIKLCILLHAFRIRAVTIDRVMSYLNASDKTHTCPPCPAPEDEGGPSVFLFPPKPKDTLMISRTPEVTCVVVDVSHEDPEVKFNWYVDGVEVHNAKTKPREEQYNSTYRVVSVLTVLHQDWLNGKEYKCKVSNKALPAPIEKTISKAKGQPREPQVYVYPPSREEMTKNQVSLTCLVKGFYPSDIAVEWESNGQPENNYKTTPPVLDEDGSFALVSKLTVDKSRWQQGNVFSCSVMHEALHNHYTQKSLSLSPGK
Biological activity of IL-12, HEK-PD-1-IL-12 reporter assay, % of rIL-12 [1]: 126%

B3: IL-12(F60A)/PD-L1(I54Q/Y56F/E58M/R113T/M115L/S117A/G119K)-Fc (IL-12 at hinge) (Fc fusion)
chain 1: B1 chain 1
chain 2: B2 chain 2 with A282E
Biological activity of IL-12, HEK-PD-1-IL-12 reporter assay, % of rIL-12 [1]: 234%

B8: IL-12(E59A/F60A)/IFN-γ(A23V/A23V)/PD-L2(mut2)-Fc (Fc fusion)
chain 1: LFTVTVPKELYIIEHGSNVTLECNFDTGSHVNLGAITAVLQKVENDTSPHRERATLLEEQLPLGKASFHIPQVQVRDEGQYQCIIIYGVAWDYKYLTLKVKASYRKINTHILKVPETDEVELTCQATGYPLAEVSWPNVSVPANTSHSRTPEGLYQVTSVLRLKPPPGRNFSCVFWNTHVRELTLASIDLQSQMEPRTHPTGGGGSGGGIWELKKDVYVVELDWYPDAPGEMVVLTCDTPEEDGITWTLDQSSEVLGSGKTLTIQVKAAGDAGQYTCHKGGEVLSHSLLLLHKKEDGIWSTDILKDQKEPKNKTFLRCEAKNYSGRFTCWWLTTISTDLTFSVKSSRGSSDPQGVTCGAATLSAERVRGDNKEYEYSVECQEDSACPAAEESLPIEVMVDAVHKLKYENYTSSFFIRDIIKPDPPKNLQLKPLKNSRQVEVSWEYPDTWSTPHSYFSLTFCVQVQGKSKREKKDRVFTDKTSATVICRKNASISVRAQDRYYSSSWSEWASVPCSGGGGSGGGSGGGGSRNLPVATPDPGMFPCLHHSQNLLRAVSNMLQKARQTLEFYPCTSEEIDHEDITKDKTSTVEACLPLELTKNESCLNSRETSFITNGSCLASRKTSFMMALCLSSIYEDLKMYQVEFKTMNAKLLMDPKRQIFLDQNMLAVIDELMQALNFNSETVPQKSSLEEPDFYKTKIKLCILLHAFRIRAVTIDRVMSYLNASGGGGSGGGDKTHTCPPCPAPEDEGGPSVFLFPPKPKDTLMISRTPEVTCVVVDVSHEDPEVKFNWYVDGVEVHNAKTKPREEQYNSTYRVVSVLTVLHQDWLNGKEYKCKVSNKALPAPIEKTISKAKGQPREPQVYVYPPSREEMTKNQVSLTCLVKGFYPSDIAVEWESNGQPENNYKTTPPVLDEDGSFALVSKLTVDKSRWQQGNVFSCSVMHEALHNHYTQKSLSLSPGK
chain 2: LFTVTVPKELYIIEHGSNVTLECNFDTGSHVNLGAITAVLQKVENDTSPHRERATLLEEQLPLGKASFHIPQVQVRDEGQYQCIIIYGVAWDYKYLTLKVKASYRKINTHILKVPETDEVELTCQATGYPLAEVSWPNVSVPANTSHSRTPEGLYQVTSVLRLKPPPGRNFSCVFWNTHVRELTLASIDLQSQMEPRTHPTGGGSGQDPYVKEAENLKKYFNAGHSDVVDNGTLFLGILKNWKEESDRKIMQSQIVSFYFKLFKNFKDDQSIQKSVETIKEDMNVKFFNSNKKKRDDFEKLTNYSVTDLNVQRKAIHELIQVMAELSPAAKTGKRKRSQMLFRGGGGSGGGGSGGGGSGGGGSQDPYVKEAENLKKYFNAGHSDVVDNGTLFLGILKNWKEESDRKIMQSQIVSFYFKLFKNFKDDQSIQKSVETIKEDMNVKFFNSNKKKRDDFEKLTNYSVTDLNVQRKAIHELIQVMAELSPAAKTGKRKRSQMLFRGGGGGSGGGDKTHTCPPCPAPEKKGGPSVFLFPPKPKDTLMISRTPEVTCVVVDVSHEDPEVKFNWYVDGVEVHNAKTKPREEQYNSTYRVVSVLTVLHQDWLNGKEYKCKVSNKALPAPIEKTISKAKGQPREPQVYVLPPSREEMTKNQVSLLCLVKGFYPSDIAVEWESNGQPENRYMTWPPVLDSDGSFFLYSKLTVDKSRWQQGNVFSCSVMHEALHNHYTQKSLSLSPGK
IFN-γ signal transduction, HEK-IFN-γ-PD-1 [2]: 35%
IL-12 signal transduction, HEK-IL-12-PD-1 [2]: 45%
IL-12 signal transduction, HEK-IL-12 [3]: < 0.2%
IFN-γ signal transduction, HEK-IFN-γ [4]: < 0.1%

B9: IL-12(E59A/F60A)/IFN-γ(A23V/A23V)/PD-L2(mut4)-Fc (Fc fusion)
chain 1: B8 chain 1 with T37V, Q41L
chain 2: B8 chain 2 with T37V, Q41L
IFN-γ signal transduction, HEK-IFN-γ-PD-1 [2]: 40%
IL-12 signal transduction, HEK-IL-12-PD-1 [2]: 49%
IL-12 signal transduction, HEK-IL-12 [3]: < 0.2%
IFN-γ signal transduction, HEK-IFN-γ [4]: < 0.1%

Results, then the binder that gave them:

Biological activity of IL-12, HEK-PD-1-IL-12 reporter assay, % of rIL-12 [1]: 234%
B4: PD-L1(I54Q/Y56F/E58M/R113T/M115L/S117A/G119K)-Fc/IL-12(F60A) (IL-12 at C-terminus of Fc) (Fc fusion)
chain 1: B1 chain 1
chain 2: B1 chain 2 with A524E

Kd (human PD-1): 130 nM
B5: anti-PD-1 antibody HC-CDR3(D100G) (antibody, V domains shown)
VH: QVQLVESGGGVVQPGRSLRLDCKASGITFSNSGMHWVRQAPGKGLEWVAVIWYDGSKRYYADSVKGRFTISRDNSKNTLFLQMNSLRAEDTAVYYCATNGDYWGQGTLVTVSS
VL: EIVLTQSPATLSLSPGERATLSCRASQSVSSYLAWYQQKPGQAPRLLIYDASNRATGIPARFSGSGSGTDFTLTISSLEPEDFAVYYCQQSSNWPRTFGQGTKVEIKR
notes: constant parts as m82

Kd (human PD-1): 910 nM
B6: anti-PD-1 antibody HC-CDR3(D100R) (antibody, V domains shown)
VH: B5 VH with G100R
VL: B5 VL
notes: constant parts as m82

Kd (human PD-1): 25 nM
B7: anti-PD-1 antibody HC-CDR3(D100N) (antibody, V domains shown)
VH: B5 VH with G100N
VL: B5 VL
notes: constant parts as m82
